Assay results as given in a protein production outcome set (Wang et al. 2014).

Assay: label from the status in PepcDB records

Sequence	protein production
ETRIIKGFECKPHSQPWQAALFEKTRLLCGATLIAPRWLLTAAHCLKPRYIVHLGQHNLQKEEGCEQTRTATESFPHPGFNNSLPNKDHRNDIMLVKMASPVSITWAVRPLTLSSRCVTAGTSCLISGWGSTSSPQLRLPHTLRCANITIIEHQKCENAYPGNITDTMVCASVQEGGKDSCQGDSGGPLVCNQSLQGIISWGQDPCAITRKPGVYTKVCKYVDWIQETMKNN	failed
MKIRTIARASLLSAAIALAVTGCNSEPDMSQEDIQYISHVDQARFFQRQGELKASTIEARSAIDLQPNRTAPYFVIIHNLLTAGDAANAERQLDKLLENTNIEELGQSERNQAALIRAEARILQGKHQEALESLDQISSPSPDQQLQADNLKGRAWLTSGDFDKAEEAYQSAFDKHSNNVVAMVGLSRVATAKGDFDTAKERLEKAIEIDAEHEDVWLWRAQFAHAQQQWAEAEQAYIRALETIGQFDVMTFRKYQTISALITVLREQGKSAEAFVYEEILAKSGPGTIKSNLEAAASAYNDGDLNTAARYLQEVLNQVPNHQQSALMLGVIRYRQGRPEEAEKLLAPLADMENADEVRKLLAATRISMRDPAGAKSLLEDLEGSDADPQTLALVGIASLASGDDQSGRQLLEKSLELAPDNHNLRLRYAAYLTQTRDFANAIKQARQIPSDATEALQATILTSQAQALSGNSQTATDTLDTWLKANPDSMAALIARGNLASSLNNTQQAASYFERAHKQHPEEAAPLVALGNLAREQQNTEQAIAWYRQAVETNPNNLPAIQALAGVMKRDQLTGLMQEISSKHPEANGPRLILLESALINNDTLQADELTARLMEREREDQPSPAEPLVAAVYEGIATQMAQRENSERALEILSRGRTLFPENEAIALKVAAIEFSNGNATAARSALQDAKQHHPDSPAPYQVEASYYENQGEHQQAAELYQLALAKRQTAELAIAHARALSNAGRSQNSIEALQEANKQFPNNSSILLTLALQTQQAGQTDAAIEHYQQVLQLTPDNALALNNLAWLYYEAGNSEAASLAKRAYELVPENAAIADTYGWILFEAGEHEQSLAVLERAHSLAPDSQEIAMHLAEAYRATGRTDAAQQIMDKFSTGNNG	failed
MRILSIIRIIGILVMCFSGTMLVPAFVALIYGDGGGKAFMQAFMLSLIAGTLLWWPCHHHKQELRSRDGFLIVVAFWLVLGSLATLPLLLFDSPHLTIASAVFEAFSGLTTTGATVMTGLDNLPKSILFYRQFLQWLGGMGIIVLAVAIIPLLGIGGTQLYRAESSGPLKDQKSLPKISEVAKALWIIYASLTVLCAIAYWLSGMNLFDAIGHSFSTISNGGFSTHDASIGYFNQASIYWVTTIFMLIGGVNFSLHISAFLALGKRNIWRNYWKDPEFRFFLTMQIIFIGIVSLSLYGYGLVSDINEAVTKGALQLTSMSMTAGYTIFDIDNLPPFIGLLLVISAVIGGCGGSTTGGLKAIRTLILWKQIDRELHSLIHPNLVQPIRIGKNRLAPRMIESIWAFFIIFILVYWGCVFAVILCGMNTFDAMGAVFATLTNAGPGLGFIHESFIGVPESAKLVFSFAMICGRLEMFSLIVLFIPSYWKK	failed
MKAILRASRIGRVILRYRLDALLEGTPAERWLRLAKPFVPRASAEIAAQSRGARLRLALQELGPIFVKFGQILSTRRDLIPADVAEELTLLQDRVKPFDGQAARLIVEAALGLPVSVAFASFDTVPLASASIAQVHAATLPPDANGVRREVVVKVLRPEIERQIDADIALLHSLATLVERTHPRADKIRPREVVAEIEGTLAAELDLQREGANASVLRRFWEGSDDLYVPEVIWSHTAERALTLERVYGIPSDDIAKLDAAGIDRKALAAKGVRVFYTQVFRDNFFHADAHAGNIWVDSDPERRLNPRFIALDFGIMGQLSQEDQYYLAENFMAIFHKDYRRMAELHVEAGWMPSNVRIDELEAAARSVCEPYFNRPLSEISLAQVLIKLFRVAQRYELTLQPQLILLQKTLLNIEGVGRQLDPRLDIWAVARPVLERILRERYSPRRVLRELSKRLPEIMTHAPDMPRLVYSWLTQQVEGRHQIAIRSPELLALDLSLRKLQTRVVTAITGSGLLVVAAVLYGLHPDGWYLGTVPVWSWISGGAGSAALLVAWLRR	failed
MKKTLILGATPETNRYAYLAAERLKSHGHEFIPVGRKKGEVLGKTIINERPVIEGVDTVTLYINPQNQLSEYNYILSLKPKRVIFNPGTENEELEEILSENGIEPVIGCTLVMLSAGT	failed
MSHVSLQEFLKTEPDGTLEVVAEQYNTTLLEVVRNLPSSTVVPGDKFDTVWDTVCEWGNVTTLVHTADVILEFSGELPSGFHRHGYFNLRGKHGMSGHIKAENCTHIALIERKFMGMDTASILFFNKEGSAMLKIFLGRDDHRQLLSEQVSAFHTLAASLKEHA	not failed
SYTFDTTDHKSPCCNFQWYIFRKQGESRIITCELFGVIVSLENRWDWLEFMIDDSLQLTAFRCPKRDKLGMETLLQLGDVAQVTGNWKLSNGAFLNATKIAIHNNPDVECKYWLQQIQKYKSKVCELEIPSDWIRRQQRAHNLKTDAVLSFSAQVSTAAATCWKLWKKHFNQGGKISLQRLWEVIQRENCPKMQELSSCRRNQIVQLLIHLGYLIPLSKEPETYVLLIDDILDKQVMQIFNQNIASKTLSLREVAYRLEEYFHVEEISLERVEESILRLAYKEKVEQV	not failed
FHWVNDGYADFDGFLAALSSRKRKAIRKERAQAQGFGGQIRELTGGDLRPEHWDAFWRFYQDTGARKWGSPYLTRAFFDIAHQTMADDMVLVLAERDGIPVAGALNFIGREALFGRYWGCVEHHPCLHFELCYYRAIDWAIAHGLARVEAGAQGEHKLARG	not failed
MKKEAESLIEKEHGTNPKISRYWIQRYDLFSKYDQGIEMDEEGWYSVTPEEIAIKQAERCRGKVVIDCFSGVGAIDIDPMKIALAMNNAKVYGVANRIDFVTGDFMQLAPSLKGDVLFLSPPWGGPTYSKVESYKLDMLLPRDGGVERVDSLTHESHNMTRSMKLKKRSRLKKEVKSTIEKDNGRRHKITKYWIQRYDLFSRYDQGIEMDEEGWYSVTPEEIAIKQAQRYRGKVVIDCFSGVGGNTIQFAKVCSSVVAIDIDPVKVELAMNNAMVYGVANRVDFVIGDFIQLAPSLKGDVVFLSPPWGGPMYRDFESYNLDMLQPRDGYSLFQIAQSITPNIIMFLPRNVDLAQVEELAWLSSPPLNLEIEENFVGGRMKAVTAYFSCNAV	not failed
AIREREMKVLNIQVTSSCNYACGMCPFHGDGYSGEYFDERPTIRRDMSLDEIKLILEKASMEGFEWIDLTPNGEFFTHKQWYQILSLIKEFGLKIMITSNGGLLGEEDIKRACEVGVDHIVISVDSLSYESYKKIRKPATKLAFERAIHAPLYFKKYG	failed
MALQTEQFNANILRNGEWVESRTGERISISAPASGVALGSIPALSQEEVNDAIQGAKDAQKIWKIRPIHERVDLLYAWADLLEERKEIIGELIMHEVAKPKKSAIGEVSRTADIIRHTADEALRLNGETLKGDQFKGGSSKKIALVEREPLGVVLAISPFNYPVNLAAAKIAPALVTGNTVVFKPATQGSLSGIKMVEALADAGAPEGIIQVVTGRGSVIGDHLVEHPGIDMITFTGGTTTGERISEKAKMIPVVLELGGKDPAIVLDDADLKLTASQIVSGAFSYSGQRCTAIKRVFVQDSVADQLVANIKELVEQLTVGSPEDDADITPVIDEKSAAFIQGLIDDALENGATLLSGNKRQGNLLSPTLLDDVTPAMRVAWEEPFGPVLPIIRVKDANEAISLSNQSDYGLQASIFTKDTDRAINIGKHLEVGTVHINAKTERGPDHFPFLGVKKSGLGVQGIKPSLLSMTRERVTVLNL	not failed
QYCWQHRFPTGYFSICDRYMNGTCPEGNSCKFAHGNAELHEWEERRDALKMKLNKA	not failed
